T1: cynomolgus monkey FcγRIIa1 extracellular domain with C-terminal His-tag (cynomolgus monkey)
T1 construct: also called cyno FcgRIIa1; cynoFcγRIIa1
T1 chain: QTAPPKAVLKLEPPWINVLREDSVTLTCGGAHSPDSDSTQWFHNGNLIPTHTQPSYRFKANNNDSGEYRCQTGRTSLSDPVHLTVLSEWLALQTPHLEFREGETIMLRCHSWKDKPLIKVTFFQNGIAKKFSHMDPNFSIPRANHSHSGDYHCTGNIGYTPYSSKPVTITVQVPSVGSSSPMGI

T2: cynomolgus monkey FcγRIIa2 extracellular domain with C-terminal His-tag (cynomolgus monkey)
T2 construct: also called cyno FcgRIIa2; cynoFcγRIIa2
T2 chain: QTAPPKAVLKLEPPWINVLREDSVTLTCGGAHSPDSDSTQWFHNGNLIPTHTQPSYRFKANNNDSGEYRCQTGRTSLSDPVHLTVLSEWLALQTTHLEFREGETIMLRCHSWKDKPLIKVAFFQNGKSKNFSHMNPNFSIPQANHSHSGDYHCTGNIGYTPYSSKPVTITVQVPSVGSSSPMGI

T3: cynomolgus monkey FcγRIIb extracellular domain with C-terminal His-tag (cynomolgus monkey)
T3 construct: also called cyno FcgRIIb; cynoFcγRIIb
T3 chain: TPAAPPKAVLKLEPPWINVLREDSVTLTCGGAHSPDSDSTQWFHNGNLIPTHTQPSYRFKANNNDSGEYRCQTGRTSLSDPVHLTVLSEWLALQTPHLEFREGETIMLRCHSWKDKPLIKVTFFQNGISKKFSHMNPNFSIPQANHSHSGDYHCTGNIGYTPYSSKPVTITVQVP

T4: cynomolgus monkey FcγRIIIaS extracellular domain with C-terminal His-tag (cynomolgus monkey, UniProt Q8SPW2 21-206 at identity 1.00))
T4 construct: also called cyno FcgRIIIaS; cynoFcγRIIIaS
T4 chain: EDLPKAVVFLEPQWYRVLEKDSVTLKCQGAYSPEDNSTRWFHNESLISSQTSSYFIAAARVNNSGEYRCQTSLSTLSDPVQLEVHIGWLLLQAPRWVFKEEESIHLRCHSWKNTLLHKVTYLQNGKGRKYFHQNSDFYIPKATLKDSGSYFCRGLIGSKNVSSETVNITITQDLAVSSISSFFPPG

T5: human FcγRIIaH extracellular domain with C-terminal His-tag (human, UniProt P12318 34-217)
T5 construct: also called human FcgRIIaH; FcγRIIa (type H)
T5 sequence: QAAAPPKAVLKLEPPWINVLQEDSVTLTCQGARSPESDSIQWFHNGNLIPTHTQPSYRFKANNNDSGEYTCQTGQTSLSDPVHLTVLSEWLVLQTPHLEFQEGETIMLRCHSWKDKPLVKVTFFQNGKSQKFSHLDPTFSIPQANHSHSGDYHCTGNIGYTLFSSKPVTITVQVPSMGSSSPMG

T6: human FcγRIIaR extracellular domain with C-terminal His-tag (human, UniProt P12318 34-217)
T6 construct: also called human FcgRIIaR; FcγRIIa (type R)
T6 chain: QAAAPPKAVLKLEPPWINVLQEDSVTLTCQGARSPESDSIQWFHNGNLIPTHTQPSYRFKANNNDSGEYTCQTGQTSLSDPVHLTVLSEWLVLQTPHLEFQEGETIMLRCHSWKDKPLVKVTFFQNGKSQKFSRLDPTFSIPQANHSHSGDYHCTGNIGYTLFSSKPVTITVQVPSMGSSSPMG

T7: human FcγRIIb extracellular domain with C-terminal His-tag (human, UniProt P31994 43-217)
T7 construct: also called human FcgRIIb
T7 sequence: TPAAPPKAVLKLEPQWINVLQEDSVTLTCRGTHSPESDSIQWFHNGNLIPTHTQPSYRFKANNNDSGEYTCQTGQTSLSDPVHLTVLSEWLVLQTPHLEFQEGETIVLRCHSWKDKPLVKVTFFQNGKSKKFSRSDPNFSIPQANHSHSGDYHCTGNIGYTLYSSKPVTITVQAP


Tests used:
[1] = biological target: T1, cynomolgus monkey FcγRIIa1 …; assay: SPR (BIACORE); KD of SG1 / KD of variant;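 note: relative to parent M103205H795-SG1 carrying the SG1 human heavy chain constant region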
[2] = biological target: T2, cynomolgus monkey FcγRIIa2 …; assay: SPR (BIACORE); KD of SG1 / KD of variant;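 note: relative to parent M103205H795-SG1 carrying the SG1 human heavy chain constant region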
[3] = biological target: T3, cynomolgus monkey FcγRIIb extracellular …; assay: SPR (BIACORE); KD of SG1 / KD of variant;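 note: relative to parent M103205H795-SG1 carrying the SG1 human heavy chain constant region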
[4] = biological target: T4, cynomolgus monkey FcγRIIIaS …; assay: SPR (BIACORE); KD of SG1 / KD of variant;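 note: relative to parent M103205H795-SG1 carrying the SG1 human heavy chain constant region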
[5] = biological target: T5, human FcγRIIaH extracellular domain …; assay: SPR (BIACORE); KD of SG1 / KD of variant
[6] = biological target: T6, human FcγRIIaR extracellular domain …; assay: SPR (BIACORE); KD of SG1 / KD of variant
[7] = biological target: T7, human FcγRIIb extracellular domain with …; assay: SPR (BIACORE); KD of SG1 / KD of variant
[8] = biological target: T8, human FcγRIIIaV extracellular domain with C-terminal His-tag (human, UniProt P08637 17-208); assay: SPR (BIACORE); KD of SG1 / KD of variant
T8 construct: also called human FcgRIIIaV
T8 sequence (P08637 17-208 F176V): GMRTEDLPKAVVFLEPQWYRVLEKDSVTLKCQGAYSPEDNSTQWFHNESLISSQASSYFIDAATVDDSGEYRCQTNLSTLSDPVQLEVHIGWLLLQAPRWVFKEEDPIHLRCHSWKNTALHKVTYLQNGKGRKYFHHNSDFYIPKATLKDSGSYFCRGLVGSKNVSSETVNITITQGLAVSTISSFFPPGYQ

[9] = biological target: T4, cynomolgus monkey FcγRIIIaS …; assay: SPR (BIACORE), antibody captured, FcgR analyte

KD fold (SG1 = 1) [1] [fold] | KD fold (SG1 = 1) [2] [fold] | KD fold (SG1 = 1) [3] [fold] | KD fold (SG1 = 1) [4] [fold] | KD fold (SG1 = 1) [5] [fold] | KD fold (SG1 = 1) [6] [fold] | KD fold (SG1 = 1) [7] [fold] | KD fold (SG1 = 1) [8] [fold] | Kd [9] [nM] | Binder
5.1 | 7.4 | 9.5 | 0.16 | 1.2 | 1.3 | 9.2 | 0.06 | 2200 | M103205H795-MY209/M103202L889-SK1 (antibody, human IgG1, kappa, Substitutions introduced into M103205H795-SG1, expressed with M103202L889-SK1 as light chain; EU numbering) heavy: QVTLKESGPVLVKPTETLTLTCTVSGIDLSHDDISWVRQAPGKGLEWVGIISYAGSTYYASWAKGRLTISKDTSKNQVVLTMTNMDPVDTATYYCARGVPAYSHGGDLWGQGTLVTVSSASTKGPSVFPLAPSSKSTSGGTAALGCLVKDYFPEPVTVSWNSGALTSGVHTFPAVLQSSGLYSLSSVVTVPSSSLGTQTYICNVNHKPSNTKVDKKVEPKSCDKTHTCPPCPAPELLNGPSVFLFPPKPKDTLMISRTPEVTCVVVDVSDEDPEVKFNWYVDGVEVHNAKTKPREELYNSTYRVVSVLTVLHQDWLNGKEYKCKVSNTALPKPIEKTISKAKGQPREPQVYTLPPSREEMTKNQVSLTCLVKGFYPSDIAVEWESNGQPENNYKTTPPVLDSDGSFFLYSKLTVDKSRWQQGNVFSCSVMHEALHNHYTQKSLSLSP light: DIVMTQSPATLSLSPGERATLSCTSSQSVYHANWLSWFQQKPGQPPKLLIYWASTLAYGVPSRFSGSGSGTDFTLTISSLQPEDAATYYCAGGYGGGRYAFGQGTKVEIKRTVAAPSVFIFPPSDEQLKSGTASVVCLLNNFYPREAKVQWKVDNALQSGNSQESVTEQDSKDSTYSLSSTLTLSKADYEKHKVYACEVTHQGLSSPVTKSFNRGEC
2.3 | 3.2 | 4.3 | 0.16 | 4.9 | 1.1 | 2.6 | 0.14 | 2200 | M103205H795-MY283/M103202L889-SK1 (antibody, human IgG1, kappa, Substitutions introduced into M103205H795-SG1, expressed with M103202L889-SK1 as light chain; EU numbering) heavy: QVTLKESGPVLVKPTETLTLTCTVSGIDLSHDDISWVRQAPGKGLEWVGIISYAGSTYYASWAKGRLTISKDTSKNQVVLTMTNMDPVDTATYYCARGVPAYSHGGDLWGQGTLVTVSSASTKGPSVFPLAPSSKSTSGGTAALGCLVKDYFPEPVTVSWNSGALTSGVHTFPAVLQSSGLYSLSSVVTVPSSSLGTQTYICNVNHKPSNTKVDKKVEPKSCDKTHTCPPCPAPELLTGPSVFLFPPKPKDTLMISRTPEVTCVVVDVSDEDPEVKFNWYVDGVEVHNAKTKPREELYNSTYRVVSVLTVLHQDWLNGKEYKCKVSNKALPKPIEKTISKAKGQPREPQVYTLPPSREEMTKNQVSLTCLVKGFYPSDIAVEWESNGQPENNYKTTPPVLDSDGSFFLYSKLTVDKSRWQQGNVFSCSVMHEALHNHYTQKSLSLSP light: DIVMTQSPATLSLSPGERATLSCTSSQSVYHANWLSWFQQKPGQPPKLLIYWASTLAYGVPSRFSGSGSGTDFTLTISSLQPEDAATYYCAGGYGGGRYAFGQGTKVEIKRTVAAPSVFIFPPSDEQLKSGTASVVCLLNNFYPREAKVQWKVDNALQSGNSQESVTEQDSKDSTYSLSSTLTLSKADYEKHKVYACEVTHQGLSSPVTKSFNRGEC
0.9 | 1.7 | 2.4 | 0.47 | 1.7 | 1.7 | 1.5 | 0.14 | 760 | M103205H795-MY339/M103202L889-SK1 (antibody, human IgG1, kappa, Substitutions introduced into M103205H795-SG1, expressed with M103202L889-SK1 as light chain; EU numbering) heavy: QVTLKESGPVLVKPTETLTLTCTVSGIDLSHDDISWVRQAPGKGLEWVGIISYAGSTYYASWAKGRLTISKDTSKNQVVLTMTNMDPVDTATYYCARGVPAYSHGGDLWGQGTLVTVSSASTKGPSVFPLAPSSKSTSGGTAALGCLVKDYFPEPVTVSWNSGALTSGVHTFPAVLQSSGLYSLSSVVTVPSSSLGTQTYICNVNHKPSNTKVDKKVEPKSCDKTHTCPPCPAPELLLGPSVFLFPPKPKDTLMISRTPEVTCVVVDVSDEDPEVKFNWYVDGVEVHNAKTKPREEQYNSTYRVVSVLTVLHQDWLNGKEYKCKVSNTALPKPIEKTISKAKGQPREPQVYTLPPSREEMTKNQVSLTCLVKGFYPSDIAVEWESNGQPENNYKTTPKVLDSDGSFFLYSKLTVDKSRWQQGNVFSCSVMHEALHNHYTQKSLSLSP light: DIVMTQSPATLSLSPGERATLSCTSSQSVYHANWLSWFQQKPGQPPKLLIYWASTLAYGVPSRFSGSGSGTDFTLTISSLQPEDAATYYCAGGYGGGRYAFGQGTKVEIKRTVAAPSVFIFPPSDEQLKSGTASVVCLLNNFYPREAKVQWKVDNALQSGNSQESVTEQDSKDSTYSLSSTLTLSKADYEKHKVYACEVTHQGLSSPVTKSFNRGEC

From patent publication US20200317768A1 (published 2020)
